Measured values reported in article PMC8865655.

Molecular target: Cry2-mCh-METTL3 (wild type, full-length construct), Q86U44
Assay: FRET or BRET; FLIM-FRET in live HEK293T; EGFP fusion as donor, Cry2-mCh-METTL3 (mCherry) as acceptor; photons collected from inside condensates formed after blue light illumination (30 seconds)
Conditions: remark: other sources report otherwise

Chain of Cry2-mCh-METTL3 (wild type, full-length construct), Q86U44 (Q86U44 whole entry, the tested form may be a part): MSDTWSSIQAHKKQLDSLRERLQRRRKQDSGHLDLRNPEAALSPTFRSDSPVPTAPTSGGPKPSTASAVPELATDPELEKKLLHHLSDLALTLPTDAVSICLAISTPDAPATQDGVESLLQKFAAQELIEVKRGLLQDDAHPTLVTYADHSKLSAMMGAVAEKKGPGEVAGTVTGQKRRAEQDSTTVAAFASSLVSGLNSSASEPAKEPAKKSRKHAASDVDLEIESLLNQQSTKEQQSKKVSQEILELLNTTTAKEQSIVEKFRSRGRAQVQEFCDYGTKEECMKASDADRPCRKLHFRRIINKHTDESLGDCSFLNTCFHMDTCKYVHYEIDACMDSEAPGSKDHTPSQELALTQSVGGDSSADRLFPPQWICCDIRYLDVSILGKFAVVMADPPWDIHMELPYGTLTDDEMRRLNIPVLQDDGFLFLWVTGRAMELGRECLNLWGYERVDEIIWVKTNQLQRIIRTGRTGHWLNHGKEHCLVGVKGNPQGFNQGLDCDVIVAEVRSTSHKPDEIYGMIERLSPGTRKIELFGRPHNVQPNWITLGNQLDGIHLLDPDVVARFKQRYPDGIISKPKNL

B1: EGFP-WTAP, Q15007 1-396 (natural protein)
chain: MTNEEPLPKKVRLSETDFKVMARDELILRWKQYEAYVQALEGKYTDLNSNDVTGLRESEEKLKQQQQESARRENILVMRLATKEQEMQECTTQIQYLKQVQQPSVAQLRSTMVDPAINLFFLKMKGELEQTKDKLEQAQNELSAWKFTPDSQTGKKLMAKCRMLIQENQELGRQLSQGRIAQLEAELALQKKYSEELKSSQDELNDFIIQLDEEVEGMQSTILVLQQQLKETRQQLAQYQQQQSQASAPSTSRTTASEPVEQSEATSKDCSRLTNGPSNGSSSRQRTSGSGFHREGNTTEDDFPSSPGNGNKSSNSSEERTGRGGSGYVNQLSAGYESVDSPTGSENSLTHQSNDTDSSHDPQEEKAVSGKGNRTVGSRHVQNGLDSSVNVQGSVL
With B1 the EGFP fluorescence lifetime (FLIM-FRET) was 2.01 ns.
